Source: article PMC8843743, “Targeting a proteolytic neoepitope on CUB domain containing protein 1 (CDCP1) for RAS-driven cancers” (The Journal of Clinical Investigation, 2022)

Biological target: T1, NTF of recombinant c-CDCP1 cut 3 (human, UniProt Q9H5V8 30-369)
T1 construct: CUB domain containing protein 1 (CDCP1), human; NTF with the native cut site 3 (proteolysis after K369); NTF (aa 30-369); The NTF alone was also made as NTF-Fc; also called NTF (cut 3); NTF (aa 30-369); source: BirA-Expi293, cotransfected with the CTF plasmid, purified (protein A or Ni-NTA)
T1 sequence (looked up): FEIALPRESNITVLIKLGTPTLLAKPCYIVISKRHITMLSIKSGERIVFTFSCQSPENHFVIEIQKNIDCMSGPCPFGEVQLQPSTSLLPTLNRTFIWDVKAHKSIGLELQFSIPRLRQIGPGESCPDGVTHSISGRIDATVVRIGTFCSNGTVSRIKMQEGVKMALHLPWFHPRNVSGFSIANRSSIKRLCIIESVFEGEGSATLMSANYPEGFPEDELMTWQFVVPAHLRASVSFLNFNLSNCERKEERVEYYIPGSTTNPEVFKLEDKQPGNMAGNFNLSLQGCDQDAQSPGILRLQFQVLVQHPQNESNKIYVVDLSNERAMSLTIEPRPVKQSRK
Experiment: co-purification after co-expression; NTF and CTF ectodomain on separate plasmids cotransfected in BirA-Expi293; protein A or Ni-NTA affinity chromatography; SDS-PAGE
Settings: partners not purified

binding result: binds
B1: CTF ectodomain of recombinant c-CDCP1 cut 3 (domain or fragment, human, UniProt Q9H5V8 370-665, looked up)
chain: FVPGCFVCLESRTCSSNLTLTSGSKHKISFLCDDLTRLWMNVEKTISCTDHRYCQRKSYSLQVPSDILHLPVELHDFSWKLLVPKDRLSLVLVPAQKLQQHTHEKPCNTSFSYLVASAIPSQDLYFGSFCPGGSIKQIQVKQNISVTLRTFAPSFQQEASRQGLTVSFIPYFKEEGVFTVTPDTKSKVYLRTPNWDRGLPSLTSVSWNISVPRDQVACLTFFKERSGVVCQTGRAFMIIQEQRTRAEEIFSLDEDVLPKPSFHHHSFWVNISNCSPTSGKQLDLLFSVTLTPRTVD
notes: CUB domain containing protein 1 (CDCP1), human; CTF ectodomain with the native cut site 3 (proteolysis after K369); CTF (aa 370-665); also called CTF (cut 3); CTF (aa 370-665); source: BirA-Expi293, cotransfected with the NTF plasmid, purified (protein A or Ni-NTA)
